The values below come from article PMC11101452, “Structures of the mumps virus polymerase complex via cryo-electron microscopy” (Nature Communications, 2024).

Broadly, the stoichiometry N is the number of molecules, sites or subunits per partner or assembly.

The data set deals with the molecule itself. Description: cryo-EM structure; L–P complex co-expressed in Sf9 and co-purified by the Strep tag of L; 2.0 μM; annealed and unannealed samples combined; 150 mM NaCl, 20 mM Tris-HCl, 6 mM MgCl2, 1 mM TCEP, pH 8.0; two conformations (L_(integral)–P, L_(body)–P).

B1: mumps virus (strain Jeryl-Lynn) phosphoprotein (P) (natural protein)
chain: MDQFIKQDETGDLIETGMNVANHFLSTPIQGTNSLSKASILPGVAPVLIGNPEQKNIQHPTASHQGSKTKGRGSGVRSIIVSPSEAGNGGTQIPEPLFAQTGQGGIVTTVYQDPTIQPTGSYRSVELAKIGKERMINRFVEKPRTSTPVTEFKRGGPGAAAQGQTIQEEGIDGNGASAGSKERSGSLSGATLYAHLSLPQQDSTPANVGIAPQSAISANEIMDLLRGMDARLQHLEQKVDKVLAQGSMVTQIKNELSTVKTTLATIEGMMATVKIMDPGNPTGVPVDELRRSFSDHVTIVSGPGDVSFSSSEKPTLYLDELARPVSKPRPAKQTKSQPVKDLAGQKVMITKMITDCVANPQMKQAFEQRLAKASTEDALNDIKRDIIRSAI
notes: Phosphoprotein (P) of mumps virus strain Jeryl-Lynn, GenBank AAF70389.1; domains NTD, OD, Linker2, CTD (with XD); Four P molecules (P1-P4) stand in the L–P complex; only POD, Linker2 and part of PCTD are resolved; also called MuV P; P1; not shown: Flag, C-terminal, kept
For the protein B1, the “stoichiometry N” value stood at 4.
